Laboratory results reported in patent publication US6794168B1, “Process for oxidising aromatic compounds” (Isis Innovation Limited, priority 1999, dated 2004).
Where a chain is given by its changes, count along the chain named. Names may count otherwise.

B1: F87A-Y96F: P450cam mutant (with C334A) (protein, UniProt P00183 2-415, looked up, variant F87A Y96F C334A)
Camphor 5-monooxygenase: TTETIQSNANLAPLPPHVPEHLVFDFDMYNPSNLSAGVQEAWAVLQESNVPDLVWTRCNGGHWIATRGQLIREAYEDYRHFSSECPAIPREAGEAFDFIPTSMDPPEQRQFRALANQVVGMPVVDKLENRIQELACSLIESLRPQGQCNFTEDYAEPFPIRIFMLLAGLPEEDIPHLKYLTDQMTRPDGSMTFAEAKEALYDYLIPIIEQRRQKPGTDAISIVANGQVNGRPITSDEAKRMCGLLLVGGLDTVVNFLSFSMEFLAKSPEHRQELIERPERIPAACEELLRRFSLVADGRILTSDYEFHGVQLKKGDQILLPQMLSGLDERENAAPMHVDFSRQKVSHTTFGHGSHLCLGQHLARREIIVTLKEWLTRIPDFSIAPGAQIQHKSGIVSGVQALPLVWDPATTKAV
B2: F87L-Y96F: P450cam mutant (with C334A) (protein, UniProt P00183 2-415, looked up, variant F87L Y96F C334A)
Camphor 5-monooxygenase: B1 Camphor 5-monooxygenase with A87L
B3: F87A-Y96F-V247A: P450cam mutant (with C334A) (protein, UniProt P00183 2-415, looked up, variant F87A Y96F V247A C334A)
Camphor 5-monooxygenase: B1 Camphor 5-monooxygenase with V247A
B4: Y96A: P450cam mutant (with C334A) (protein, UniProt P00183 2-415, looked up, variant Y96A C334A)
Camphor 5-monooxygenase: B1 Camphor 5-monooxygenase with A87F, F96A
B5: Y96F: P450cam mutant (with C334A) (protein, UniProt P00183 2-415, looked up, variant Y96F C334A)
Camphor 5-monooxygenase: B1 Camphor 5-monooxygenase with A87F
B6: Y96H: P450cam mutant (with C334A) (protein, UniProt P00183 2-415, looked up, variant Y96H C334A)
Camphor 5-monooxygenase: B1 Camphor 5-monooxygenase with A87F, F96H
B7: Y96L-V247A: P450cam mutant (with C334A) (protein, UniProt P00183 2-415, looked up, variant Y96L V247A C334A)
Camphor 5-monooxygenase: B1 Camphor 5-monooxygenase with A87F, F96L, V247A
B8: Y96A-V247L: P450cam mutant (with C334A) (protein, UniProt P00183 2-415, looked up, variant Y96A V247L C334A)
Camphor 5-monooxygenase: B1 Camphor 5-monooxygenase with A87F, F96A, V247L
B9: C334A: P450cam with only the base mutation C334A (protein, UniProt P00183 2-415, looked up, variant C334A)
Camphor 5-monooxygenase: B1 Camphor 5-monooxygenase with A87F, F96Y

tested on: not listed separately; assay: Oxidation of halo aromatic compounds by P450cam mutants in vitro, trichlorophenol products; format: biochemical; conditions: (nmol product)(nmol P450cam)^−1(min)^−1; trichlorophenol products
Protocol: (§1) 50 mM Tris-HCl buffer pH 7.4 is added to make up the volume.
(§2) Temperature controlled at 30° C., optional.
(§3) The NADH turnover rate could be determined by monitoring the absorbance at 340 nm with time.
(§4) All mutants have C334A. Coupling efficiency is the percentage of NADH consumed which was utilised for product formation, i.e. a percentage of the theoretical maximum efficiency. The product formation rates are given in (nmol product) (nmol P450cam)^−1(min)^−1. The relative amount of product formed in each case is shown. 1,3- and 1,4-dichlorobenzene, 1,2,3- and 1,3,5-trichlorobenzene, 1,2,4,5- and 1,2,3,5-tetrachlorobenzene, and […] and 2,2′,4,5,5′-pentachlorobiphenyl were also found to be oxidised.

Molecule | Product formation rate
B1 | 3 min⁻¹
B2 | 8 min⁻¹
B3 | 7 min⁻¹
B4 | 33 min⁻¹
B5 | 22 min⁻¹
B6 | 1 min⁻¹

same assay, conditions: percentage of NADH consumed utilised for product formation; trichlorophenol products

Molecule | Coupling Efficiency (%)
B4 | 14%
B6 | 3%

same assay, conditions: substrate not named; all mutants have C334A

Molecule | 2,3,6-Trichlorophenol (relative amount of product formed) | 3,4,6-Trichlorophenol (relative amount of product formed)
B4 | 77 | 23
B6 | 54 | 46

tested on: not listed separately; assay: Oxidation of halo aromatic compounds by P450cam mutants in vitro, dichlorophenol products; format: biochemical; conditions: (nmol product)(nmol P450cam)^−1(min)^−1; dichlorophenol products
Protocol: as §1, §2, §3, §4

Molecule | Product formation rate
B7 | 0.7 min⁻¹
B2 | 5 min⁻¹
B4 | 19 min⁻¹
B5 | 8 min⁻¹
B8 | 20 min⁻¹
B9 | 0.5 min⁻¹

same assay, conditions: percentage of NADH consumed utilised for product formation; dichlorophenol products

Molecule | Coupling Efficiency (%)
B7 | 2%
B4 | 6%
B9 | 2%

same assay, conditions: substrate not named; all mutants have C334A

Molecule | 2,3-Dichlorophenol (relative amount of product formed) | 3,4-Dichlorophenol (relative amount of product formed)
B7 | 90 | 10
B4 | 94 | 6
B9 | 95 | 5

tested on: P450cam; assay: Oxidation of further halo aromatic substrates by P450cam enzymes; format: biochemical, Pseudomonas putida; conditions: substrate of P450cam enzymes
Protocol: as §1, §2, §3, §4

Molecule | found to be oxidised
Clc1c(Cl)c(Cl)c(-c2ccccc2)c(Cl)c1Cl [2,3,4,5,6-pentachlorobiphenyl] | oxidised
Clc1ccc(Cl)c(-c2cc(Cl)c(Cl)cc2Cl)c1 [2,2′,4,5,5′-pentachlorobiphenyl] | oxidised
Clc1cccc(Cl)c1Cl [1,2,3-trichlorobenzene] | oxidised
Clc1ccc(Cl)cc1 [1,4-dichlorobenzene] | oxidised
Clc1cc(Cl)c(Cl)cc1Cl [1,2,4,5-tetrachlorobenzene] | oxidised
Clc1cc(Cl)c(Cl)c(Cl)c1 [1,2,3,5-tetrachlorobenzene] | oxidised
Clc1cc(Cl)cc(Cl)c1 [1,3,5-trichlorobenzene] | oxidised
Clc1cccc(Cl)c1 [1,3-dichlorobenzene] | oxidised
